# Assay results published in publication PMC7438732, “The H^+-Translocating Inorganic Pyrophosphatase From Arabidopsis thaliana Is More Sensitive to Sodium Than Its Na^+-Translocating Counterpart From Methanosarcina mazei” (Frontiers in Plant Science, 2020).
# Test system: O=P(O)(O)OP(=O)(O)O
# Assay: cells, lysate or membranes
# Settings: 0 mM added NaCl, 100 mM KCl, pH 7.2, 30 °C, Mg2PPi substrate without excess Mg2+, Na+ from Na4PPi present
# MVP (Methanosarcina mazei Go1), sequence (chain, as listed by the source): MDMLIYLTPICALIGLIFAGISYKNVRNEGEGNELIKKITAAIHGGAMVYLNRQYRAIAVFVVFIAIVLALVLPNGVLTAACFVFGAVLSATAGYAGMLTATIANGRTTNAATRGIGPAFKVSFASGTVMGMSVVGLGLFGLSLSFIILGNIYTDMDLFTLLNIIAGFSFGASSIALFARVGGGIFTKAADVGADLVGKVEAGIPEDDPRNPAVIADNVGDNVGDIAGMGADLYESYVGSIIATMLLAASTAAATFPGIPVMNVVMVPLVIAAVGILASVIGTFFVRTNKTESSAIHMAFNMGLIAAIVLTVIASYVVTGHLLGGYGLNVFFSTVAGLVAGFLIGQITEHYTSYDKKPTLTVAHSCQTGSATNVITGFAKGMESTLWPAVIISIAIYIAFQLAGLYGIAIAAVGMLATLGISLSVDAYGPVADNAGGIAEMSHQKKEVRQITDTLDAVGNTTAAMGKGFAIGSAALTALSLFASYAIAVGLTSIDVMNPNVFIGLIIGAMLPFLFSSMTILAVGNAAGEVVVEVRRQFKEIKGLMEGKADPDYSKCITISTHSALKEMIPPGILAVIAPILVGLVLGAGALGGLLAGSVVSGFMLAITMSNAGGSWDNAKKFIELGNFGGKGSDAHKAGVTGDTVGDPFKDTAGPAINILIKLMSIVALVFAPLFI
substance,measurement,value
MVP (Methanosarcina mazei Go1),K0.5,0.27 ± 0.27 mM
